The term Kd denotes the equilibrium constant for the complex coming apart.

In one assay the target is T1, human p55 TNF receptor (human, UniProt P19438 30-211, limits assumed).
T1 construct: also called TNF Receptor 1; TNFR1
T1 sequence (looked up): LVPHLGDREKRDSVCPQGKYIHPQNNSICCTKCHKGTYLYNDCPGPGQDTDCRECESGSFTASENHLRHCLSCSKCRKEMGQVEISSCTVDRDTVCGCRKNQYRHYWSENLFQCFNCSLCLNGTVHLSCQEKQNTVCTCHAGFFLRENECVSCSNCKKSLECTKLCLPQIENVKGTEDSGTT

The target of another assay is T2, human serum albumin (human, UniProt P02768 25-609).
T2 construct: also called HSA
Nature of the assay: not stated; IC50/Kd, called Kd in paragraph 434.

B1: TAR2h10-55 (other)
VH: STEVQLLESGGGLVQPGGSLRLSCAASGFPFEWYWMGWVRQAPGKGLEWVSAISGSGDSTYYADSVKGRFTISRDNSKNTLYQQMNSLRAEDAAVYYCAKVKLGGGPNFGYRGQGTLVTVSSAAAEQKLISEEDLN
notes: expressed from pDOM5; also called TAR2h10-55 dAb
For the molecule B1, in the assay with human p55 TNF receptor, the dissociation constant (Kd) is 10 to 15 nM.

B2: TAR3h-23 (other)
VH: STEVQLLESGGGLVQPGGSLRLSCAASGFTFYDYNMSWVRQAPGKGLEWVSTITHTGGVTYYADSVKGRFTISRDNSKNTLYLQMNSLRAEDTAVYYCAKQNPSYQFDYWGQGTLVTVSSAAAEQKLISEEDLN
notes: anti-HSA VH dAb expressed from pDOM5
For B2, binding with human serum albumin was put at a Kd of 800 nM.

B3: TAR3h-26 (other)
VH: STEVQLLESGGGLVQPGGSLRLSCTASGFTFDEYNMSWVRQAPGKGLEWVSTILPHGDRTYYADSVKGRFTISRDNSKNTLYLQMNSLRAEDTAVYYCAKQDPLYRFDYWGQGTLVTVSSAAAEQKLISEEDLN
notes: as for B2
B3 came in with a Kd with human serum albumin of 200 nM.

B4: TAR3h-22 (other)
VH: STEVQLLESGGGLVQPGGSLRLSCAASGFTFSKYWMSWVRQAPGKGLEWVSSIDFMGPHTYYADSVKGRFTISRDNSKNTLYLQMNSLRAEDTAVYYCAKGRTSMLPMKGKFDYWGQGTLVTVSSAAAEQKLISEEDLN
notes: as for B2
As for B4, the Kd in the assay with human serum albumin stood at 50 nM.

The record behind these values is US20090148434A1 (published 2009).
